Test results published in paper PMC9025568, “Identification and Characterization of Two Bibenzyl Glycosyltransferases from the Liverwort Marchantia polymorpha” (Antioxidants, 2022).

B1: MpUGT741A1 (Marchantia polymorpha) (protein)
chain: MGSHVERPPRALLFPVVASGHWGPFLQLILQLATKKLNFTLLADRGRCDELKAYQAKGAFATLDVEFLEVYTDPSTLSLRKDLVPAMWTNLESFISNGEFDPSRYTCMISDMFLYFCQDLADKWGIPNYFYVTCPTYFGLVLLHGEGIVDGGWIPQNPVKRKQFLDLPGLEMFTGGDMPMALTEMEPDLFHLLPRAIKGSAGLVFNSFEEFEKKPLSDLRDQLKLNAMPGKGPPTVFTIGPLLLLPGIPGALDDTKPVEKSESIAWLDKQQKSSVLFICFGSQRELPEPLITGIASGLEDTGVPFLWALRIPPQSSKIESLPEGFESRTQSRGLVLTSWVPQQEILLHPSVGGFLTHCGWNSILESMLGGVPIAAFPLYAEQRMNQRYMVNAVKTAVAIEGEHGQYEAKEIAAAIMRLLKGKEGVEARQNMQIMKEMAYAAMEEGGSSHKNLQNFLAEVQRVR
notes: full-length ORF (1392 bp, 463 residues) in pET32a(+), N-terminal Trx-S-His tag, E. coli BL21(DE3), purified
B2: MpUGT737B1 (Marchantia polymorpha) (protein)
chain: MELTNGTTRRAHVLMVCVPFPGHVAPFTQLLYHLSCHENLKVTVMGHKARNAEMIKLYEKGEFKGLDIHFETIFADPPVYPSDPKFPIRAALCADQMFVEFEPIRRRLVAEKDNVGAPTSIICDMFLWFTKDAADEMGVPWYPFFSTSQWFGYCAYIGDELARRNFHPHHSEEKDQRIDITGLEFAYVHDIPSEVLEFPEFYAKVTDRSFRATGILCNTAYELEGSAGTLMATKALVQRSGKKNLKGEEAQIIPVGPIAQIPGFGVQYSLRDQPYECLKWLNAHTEKSVLYIAFGSLGNIVPEVFHELALGLEAGGVPFLWALKLTPAQKEELLPEGFLERIQSSGMGFIESGWAPQTQILMHPAVGGFLSHCGWNSTLESLCAGVPMITWPLSADQPMNARFLVDVKKVAVTVLSGSADESVVTHDDISKAIKRLFGDEEGKQIAKNSLELKKLLASLVAEGGSTYKALRYFIQDLVMV
notes: full-length ORF (1443 bp, 480 residues) in pET32a(+), N-terminal Trx-S-His tag, E. coli BL21(DE3), purified

What was measured:
Assay in all cases: HPLC glucosylation assay, nonlinear fit (GraphPad Prism)
Format in all cases: biochemical, Marchantia polymorpha
[1] = substrate: Oc1ccc(CCc2cccc(O)c2)cc1; conditions: UDP-glucose as donor; Tris-HCl, optimal pH (7.0), optimal temperature (25-30 °C), 12 min
Excerpt: HPLC glucosylation assay, nonlinear fit (GraphPad Prism) on MpUGT741A1

[2] = substrate: Oc1ccc(CCc2cccc(O)c2)cc1; conditions: UDP-glucose as donor, Tris-HCl, optimal pH (7.0-7.5), 30 °C, 12 min
Excerpt: (§1) HPLC glucosylation assay, nonlinear fit (GraphPad Prism) on MpUGT737B1

[3] = substrate: Oc1ccc(CCc2cc(O)cc(O)c2)cc1; conditions: UDP-glucose as donor, Tris-HCl, optimal pH (7.0-7.5), 30 °C, 12 min
Excerpt: as §1

[4] = substrate: O=C(CCc1ccc(O)cc1)c1c(O)cc(O)cc1O; conditions: UDP-glucose as donor, Tris-HCl, optimal pH (7.0-7.5), 30 °C, 12 min
Excerpt: as §1

Protein | Km [1] [µM] | Vmax [1] [µmol/min/mg] | kcat [1] [s⁻¹] | kcat/Km [1] [M⁻¹ s⁻¹] | Km [2] [µM] | Vmax [2] [µmol/min/mg] | kcat [2] [s⁻¹] | kcat/Km [2] [M⁻¹ s⁻¹] | Km [3] [µM] | Vmax [3] [µmol/min/mg] | kcat [3] [s⁻¹] | kcat/Km [3] [M⁻¹ s⁻¹] | Km [4] [µM] | Vmax [4] [µmol/min/mg] | kcat [4] [s⁻¹] | kcat/Km [4] [M⁻¹ s⁻¹]
B1 | 89.2 ± 17.6 | 0.15 | 0.124 ± 0.012 | 1500 |  |  |  |  |  |  |  |  |  |  |  | 
B2 |  |  |  |  | 39.3 ± 7.5 | 0.0373 | 0.033 ± 0.002 | 846 | 45.6 ± 9.7 | 0.1 | 0.089 ± 0.006 | 1960 | 50.2 ± 10.6 | 0.07 | 0.062 ± 0.005 | 1240
